# From patent US20200317768A1 (published 2020)
# Changes are numbered by the printed parent chain. Names and notes keep the numbering of the source.
# T1: cynomolgus monkey FcγRIIa2 extracellular domain, His-tagged (cynomolgus monkey)
# T1 construct: also called cyno FcγRIIa2; cynoFcgRIIa2; not shown: C-terminal His-tag
# T1 chain: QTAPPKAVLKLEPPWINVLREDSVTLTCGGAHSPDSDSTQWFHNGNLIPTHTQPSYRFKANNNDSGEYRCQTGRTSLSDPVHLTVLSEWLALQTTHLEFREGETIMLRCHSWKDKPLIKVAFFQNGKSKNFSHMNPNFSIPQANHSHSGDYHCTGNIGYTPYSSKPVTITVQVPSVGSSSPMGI
# T2: cynomolgus monkey FcγRIIb extracellular domain, His-tagged (cynomolgus monkey)
# T2 construct: also called cyno FcγRIIb; cynoFcγRIIb; not shown: C-terminal His-tag
# T2 chain: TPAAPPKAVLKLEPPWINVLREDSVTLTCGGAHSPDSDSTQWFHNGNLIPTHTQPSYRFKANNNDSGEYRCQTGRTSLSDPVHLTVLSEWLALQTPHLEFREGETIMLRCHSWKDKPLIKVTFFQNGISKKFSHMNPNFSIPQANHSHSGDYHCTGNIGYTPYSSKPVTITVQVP
# T3: cynomolgus monkey FcγRIIa3 extracellular domain, His-tagged (cynomolgus monkey)
# T3 construct: also called cyno FcγRIIa3; cynoFcgRIIa3; not shown: C-terminal His-tag
# T3 chain: T1 chain with K127I, N130K, H133P, Q142R
# T4: cynomolgus monkey FcγRIIIaS extracellular domain, His-tagged (cynomolgus monkey, UniProt Q8SPW2 21-206 at identity 1.00))
# T4 construct: also called cyno FcγRIIIaS; cynoFcγRIIIaS; not shown: C-terminal His-tag
# T4 chain: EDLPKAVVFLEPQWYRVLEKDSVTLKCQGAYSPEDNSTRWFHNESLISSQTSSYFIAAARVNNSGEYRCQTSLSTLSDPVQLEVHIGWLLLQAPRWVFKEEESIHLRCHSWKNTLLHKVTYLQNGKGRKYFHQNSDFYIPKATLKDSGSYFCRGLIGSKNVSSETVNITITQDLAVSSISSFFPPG
# T5: human FcγRIIaR extracellular domain, His-tagged (human, UniProt P12318 34-217)
# T5 construct: also called human FcγRIIa (type R); FcgRIIaR; not shown: C-terminal His-tag
# T5 chain: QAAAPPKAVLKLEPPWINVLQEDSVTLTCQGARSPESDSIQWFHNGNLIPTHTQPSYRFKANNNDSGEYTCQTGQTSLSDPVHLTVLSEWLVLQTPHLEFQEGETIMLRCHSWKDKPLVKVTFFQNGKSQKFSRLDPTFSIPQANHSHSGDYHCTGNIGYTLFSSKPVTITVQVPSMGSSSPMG
# T6: human FcγRIIaH extracellular domain, His-tagged (human, UniProt P12318 34-217)
# T6 construct: also called human FcγRIIa (type H); FcgRIIaH; not shown: C-terminal His-tag
# T6 sequence: T5 chain with R134H
# T7: cynomolgus monkey FcγRIIa1 extracellular domain, His-tagged (cynomolgus monkey)
# T7 construct: also called cyno FcγRIIa1; cynoFcgRIIa1; not shown: C-terminal His-tag
# T7 chain: T1 chain with T95P, A121T, K127I, S128A, N130K, N135D, Q142R
# T8: human FcγRIIb extracellular domain, His-tagged (human, UniProt P31994 43-217)
# T8 construct: also called FcgRIIb (human); not shown: C-terminal His-tag
# T8 sequence: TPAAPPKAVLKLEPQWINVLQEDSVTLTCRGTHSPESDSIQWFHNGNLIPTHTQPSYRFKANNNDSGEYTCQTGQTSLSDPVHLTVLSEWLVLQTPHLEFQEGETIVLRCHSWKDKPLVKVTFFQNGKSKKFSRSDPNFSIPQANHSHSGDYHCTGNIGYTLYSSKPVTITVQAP
# T9: human FcγRIIb extracellular domain, C-terminal His-tag (human, UniProt P31994 43-217)
# T9 construct: also called FcgRIIb (human)
# T9 sequence: T8 sequence
# T10: human FcγRIIaH extracellular domain, C-terminal His-tag (human, UniProt P12318 34-217)
# T10 construct: also called human FcγRIIa (type H); FcgRIIaH
# T10 sequence: T5 chain with R134H
# B1: M103205H795-MY453/M103202L889-SK1 (antibody, human IgG1, kappa)
# heavy: QVTLKESGPVLVKPTETLTLTCTVSGIDLSHDDISWVRQAPGKGLEWVGIISYAGSTYYASWAKGRLTISKDTSKNQVVLTMTNMDPVDTATYYCARGVPAYSHGGDLWGQGTLVTVSSASTKGPSVFPLAPSSKSTSGGTAALGCLVKDYFPEPVTVSWNSGALTSGVHTFPAVLQSSGLYSLSSVVTVPSSSLGTQTYICNVNHKPSNTKVDKKVEPKSCDKTHTCPPCPARELLTGPSVFLFPPKPKDTLMISRTPEVTCVVVDVSDEDPEVKFNWYVDGVEVHNAKTKPREEQYNSTYRVVSVLTVLHQDWLNGKEYKCKVSNKALPKPIEKTISKAKGQPREPQVYTLPPSREEMTKNQVSLTCLVKGFYPSDIAVEWESNGQPENNYKTTPPVLDSDGSFFLYSKLTVDKSRWQQGNVFSCSVMHEALHNHYTQKSLSLSP
# light: DIVMTQSPATLSLSPGERATLSCTSSQSVYHANWLSWFQQKPGQPPKLLIYWASTLAYGVPSRFSGSGSGTDFTLTISSLQPEDAATYYCAGGYGGGRYAFGQGTKVEIKRTVAAPSVFIFPPSDEQLKSGTASVVCLLNNFYPREAKVQWKVDNALQSGNSQESVTEQDSKDSTYSLSSTLTLSKADYEKHKVYACEVTHQGLSSPVTKSFNRGEC
# notes: copies: 2 + 2
# B2: M103205H795-MY454/M103202L889-SK1 (antibody, human IgG1, kappa)
# heavy: B1 heavy with R234S
# light: B1 light
# notes: copies: 2 + 2
# B3: M103205H795-MY455/M103202L889-SK1 (antibody, human IgG1, kappa)
# heavy: B1 heavy with R234T
# light: B1 light
# notes: copies: 2 + 2
# B4: M103205H795-MY456/M103202L889-SK1 (antibody, human IgG1, kappa)
# heavy: B1 heavy with R234V
# light: B1 light
# notes: copies: 2 + 2
# B5: M103205H795-MY457/M103202L889-SK1 (antibody, human IgG1, kappa)
# heavy: B1 heavy with R234W
# light: B1 light
# notes: copies: 2 + 2
# B6: M103205H795-MY458/M103202L889-SK1 (antibody, human IgG1, kappa)
# heavy: B1 heavy with R234Y
# light: B1 light
# notes: copies: 2 + 2
# B7: GpH7-B3 variant N325F/GpL16-k0 (antibody, human IgG1, kappa)
# heavy: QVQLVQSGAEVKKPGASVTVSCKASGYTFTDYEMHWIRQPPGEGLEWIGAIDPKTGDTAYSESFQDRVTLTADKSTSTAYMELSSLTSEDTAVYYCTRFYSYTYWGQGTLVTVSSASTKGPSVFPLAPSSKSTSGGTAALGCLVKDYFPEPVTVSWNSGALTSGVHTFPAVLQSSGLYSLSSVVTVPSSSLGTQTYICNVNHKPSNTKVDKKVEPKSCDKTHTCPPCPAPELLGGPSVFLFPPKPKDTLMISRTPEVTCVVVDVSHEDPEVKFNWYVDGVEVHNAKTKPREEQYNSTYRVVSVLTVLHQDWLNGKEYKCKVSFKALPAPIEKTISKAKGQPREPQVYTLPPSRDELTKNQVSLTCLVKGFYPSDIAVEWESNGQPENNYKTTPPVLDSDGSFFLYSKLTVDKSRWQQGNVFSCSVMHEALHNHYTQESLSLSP
# light: DIVMTQSPLSLPVTPGEPASISCQASESLVHSNRNTYLHWYLQKPGQSPQLLIYKVSNRFSGVPDRFSGSGSGTDFTLKISRVEAEDVGVYYCSQNTHVPPTFGQGTKVEIERTVAAPSVFIFPPSDEQLKSGTASVVCLLNNFYPREAKVQWKVDNALQSGNSQESVTEQDSKDSTYSLSSTLTLSKADYEKHKVYACEVTHQGLSSPVTKSFNRGEC
# B8: GpH7-B3 variant P238Y/GpL16-k0 (antibody, human IgG1, kappa)
# heavy: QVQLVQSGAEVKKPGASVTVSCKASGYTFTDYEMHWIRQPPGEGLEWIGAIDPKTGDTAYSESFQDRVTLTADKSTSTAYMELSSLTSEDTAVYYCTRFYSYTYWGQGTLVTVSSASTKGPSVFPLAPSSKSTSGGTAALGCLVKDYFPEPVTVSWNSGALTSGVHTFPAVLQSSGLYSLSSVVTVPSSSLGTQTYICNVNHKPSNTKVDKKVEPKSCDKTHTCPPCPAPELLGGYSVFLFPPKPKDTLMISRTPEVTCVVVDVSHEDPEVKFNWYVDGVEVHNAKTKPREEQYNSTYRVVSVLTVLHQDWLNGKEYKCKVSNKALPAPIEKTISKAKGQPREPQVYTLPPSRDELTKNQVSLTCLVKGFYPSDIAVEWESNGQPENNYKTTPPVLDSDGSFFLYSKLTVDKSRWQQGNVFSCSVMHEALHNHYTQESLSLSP
# light: B7 light
# B9: GpH7-B3 variant V266F/GpL16-k0 (antibody, human IgG1, kappa)
# heavy: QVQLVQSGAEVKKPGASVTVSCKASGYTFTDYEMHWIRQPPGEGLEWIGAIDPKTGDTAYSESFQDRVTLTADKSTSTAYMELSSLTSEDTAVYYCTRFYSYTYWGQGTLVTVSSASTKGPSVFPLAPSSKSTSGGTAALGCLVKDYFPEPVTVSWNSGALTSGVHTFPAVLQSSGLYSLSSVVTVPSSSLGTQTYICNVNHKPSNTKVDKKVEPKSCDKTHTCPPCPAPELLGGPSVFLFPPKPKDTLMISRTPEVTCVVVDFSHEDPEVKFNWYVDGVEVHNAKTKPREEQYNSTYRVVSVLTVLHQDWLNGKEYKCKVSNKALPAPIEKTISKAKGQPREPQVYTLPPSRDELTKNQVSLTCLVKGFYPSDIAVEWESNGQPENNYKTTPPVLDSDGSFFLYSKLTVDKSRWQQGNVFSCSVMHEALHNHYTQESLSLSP
# light: B7 light
# What was measured:
# [1] = target: T1, cynomolgus monkey FcγRIIa2 …; assay: SPR (BIACORE), captured antibody, FcgR as analyte
# Method: (§1) The kinetic analysis of interactions between these antibodies and FcγR was carried out using BIACORE® T200 or BIACORE® 4000 (GE Healthcare). HBS-EP+ (GE Healthcare) was used as the running buffer, and the measurement temperature was set to 25° C. A chip produced by immobilizing Protein A. Protein A/G or mouse anti-human IgG kappa light chain (BD Biosciences) onto a Series S Sensor Chip CM4 or CM5 (GE Healthcare) by the amine-coupling method was used. […] After the measurement, the antibody captured on the chip was washed off by allowing reaction with 10 mM glycine-HCl, pH1.5 and 25 mM NaOH so that the chip was regenerated and used repeatedly. The sensorgrams obtained as measurement results were analyzed by the 1:1 Langmuir binding model using the BIACORE® Evaluation Software to calculate the binding rate constant ka (L/mol/s) and dissociation rate constant kd (l/s), and the dissociation constant KD (mol/L) was calculated from these values. […] Regarding such interactions, KD values were calculated using the following 1:1 binding model described in BIACORE® T100 Software Handbook BR1006-48 Edition AE.
# [2] = target: T2, cynomolgus monkey FcγRIIb extracellular …; assay: SPR (BIACORE), captured antibody, FcgR as analyte
# Method: as §1
# [3] = target: T3, cynomolgus monkey FcγRIIa3 …; assay: SPR (BIACORE), captured antibody, FcgR as analyte
# Method: as §1
# [4] = target: T4, cynomolgus monkey FcγRIIIaS …; assay: SPR (BIACORE), captured antibody, FcgR as analyte
# Method: as §1
# [5] = target: T5, human FcγRIIaR extracellular domain, …; assay: SPR (BIACORE), captured antibody, FcgR as analyte
# Method: as §1
# [6] = target: T11, human FcγRIIIaV extracellular domain, His-tagged (human, UniProt P08637 17-208); assay: SPR (BIACORE), captured antibody, FcgR as analyte
# T11 construct: also called FcgRIIIaV; not shown: C-terminal His-tag
# T11 sequence (P08637 17-208 F176V): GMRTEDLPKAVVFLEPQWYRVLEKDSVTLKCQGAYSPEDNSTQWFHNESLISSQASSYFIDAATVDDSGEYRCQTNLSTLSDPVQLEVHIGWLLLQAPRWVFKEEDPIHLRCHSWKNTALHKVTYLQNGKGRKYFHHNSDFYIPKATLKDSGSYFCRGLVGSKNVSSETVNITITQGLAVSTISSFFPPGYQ
# Method: as §1
# [7] = target: T6, human FcγRIIaH extracellular domain, …; assay: SPR (BIACORE), captured antibody, FcgR as analyte
# Method: as §1
# [8] = target: T7, cynomolgus monkey FcγRIIa1 …; assay: SPR (BIACORE), captured antibody, FcgR as analyte
# Method: as §1
# [9] = target: T8, human FcγRIIb extracellular domain, …; assay: SPR (BIACORE), captured antibody, FcgR as analyte
# Method: as §1
# [10] = target: T9, human FcγRIIb extracellular domain, …; assay: SPR 25C; FcgR bound per captured antibody, relative to parent B3
# Method: (§2) These Fc variants are referred to as B3 variants. B3 variants were expressed and the binding of protein-A purified antibodies to each FcγR (FcγRIIa type H. FcγRIIa type R, FcγRIIb, and FcγRIIIaF) was comprehensively evaluated as follows. Analysis of interaction between each altered antibody and the Fcγ receptor prepared as mentioned above was carried out using BIACORE® T100 (GE Healthcare), BIACORE® T200 (GE Healthcare), BIACORE® A100, or BIACORE® 4000. HBS-EP+(GE Healthcare) was used as the running buffer, and the measurement temperature was set to 25° C. Chips produced by immobilizing Protein A (Thermo Scientific), Protein A/G (Thermo Scientific), or Protein L (ACTIGEN or BioVision) by the amine coupling method to a Series S sensor Chip CM5 or CM4 (GE Healthcare) were used. After capturing of antibodies of interest onto these sensor chips, an Fcγ receptor diluted with the running buffer was allowed to interact, the amount bound to an antibody was measured. However, since the amount of Fcγ receptor bound depends on the amount of the captured antibodies, the amount of Fcγ receptor bound was divided by the amount of each antibody captured to obtain corrected values, and these values were compared. Furthermore, antibodies captured onto the chips were washed by 10 mM glycine-HCl pH1.5, and the chips were regenerated and used repeatedly. […] The value obtained by multiplying this value by 100 was used as an indicator of the relative FcγR-binding activity of each variant.
# [11] = target: T10, human FcγRIIaH extracellular domain, …; assay: as above
# Method: as §2
Binder,Kd [1],Kd [2],Kd [3],Kd [4],Kd [5],Kd [6],Kd [7],Kd [8],Kd [9],Binding to human FcgRs (parent B3 = 100) [10],Binding to human FcgRs (parent B3 = 100) [11]
B1,9900 nM,2100 nM,21 µM,6500 nM,1600 nM,14 µM,750 nM,8200 nM,6500 nM,–,–
B2,3100 nM,1000 nM,7.6 µM,2500 nM,760 nM,5.9 µM,410 nM,3800 nM,3100 nM,–,–
B3,1900 nM,920 nM,5.4 µM,2800 nM,460 nM,6.8 µM,310 nM,3100 nM,2200 nM,–,–
B4,1700 nM,520 nM,3.4 µM,2000 nM,290 nM,5.3 µM,170 nM,1900 nM,1100 nM,–,–
B5,840 nM,200 nM,1.2 µM,1100 nM,73 nM,3.5 µM,120 nM,830 nM,330 nM,–,–
B6,1600 nM,430 nM,3 µM,190 nM,170 nM,5.3 µM,160 nM,1800 nM,990 nM,–,–
B7,–,–,–,–,–,–,–,–,–,72 parent B3 = 100,65 parent B3 = 100
B8,–,–,–,–,–,–,–,–,–,114 parent B3 = 100,93 parent B3 = 100
B9,–,–,–,–,–,–,–,–,–,88 parent B3 = 100,–
